This note sets out measurements from patent US20110091993A1 (SEKISUI MEDICAL, published 2011).

Assay [1] concerns the target T1, purified human soluble LR11 (human, UniProt Q92673 82-2137, limits assumed).
T1 construct: Natural shed soluble form from serum (Lot. 061208); Also used for native soluble LR11 measured directly in human serum and cerebrospinal fluid; also called purified human LR11; soluble LR11 in human serum
The assay is described as follows: sandwich ELISA, immobilized mouse IgG, liquid-phase biotinylated M3. For orientation: An ELISA detects its analyte on a solid surface through an enzyme-linked reagent.

Assay [2] addresses T2, purified rabbit soluble LR11 (rabbit, UniProt Q95209 82-2136, limits assumed).
T2 construct: also called purified rabbit LR11; soluble LR11 in rabbit serum
The assay is described as above.

Assay [3] deals with T1, purified human soluble LR11. The assay is described as follows: sandwich ELISA, immobilized mouse IgG, liquid-phase biotinylated M5.
Assay [4] has as its target T2, purified rabbit soluble LR11. Described as above.
In assay [5] the target is T1, purified human soluble LR11. Kind of assay: sandwich ELISA, immobilized mouse IgG, liquid-phase biotinylated R14.
Assay [6] addresses T2, purified rabbit soluble LR11. The description is as above.
For assay [7], the target named is T1, purified human soluble LR11. The assay is described as follows: sandwich ELISA, immobilized mouse IgG, liquid-phase biotinylated R23.
Assay [8] addresses T2, purified rabbit soluble LR11. Described as above.
For assay [9], the target named is T1, purified human soluble LR11. The assay is described as follows: sandwich ELISA, immobilized mouse IgG, liquid-phase biotinylated A2-2-3.
For assay [10], the target named is T2, purified rabbit soluble LR11. The assay is described as above.
The target in assay [11] is T1, purified human soluble LR11. Kind of assay: sandwich ELISA, immobilized mouse IgG, liquid-phase biotinylated mouse IgG.
In assay [12] the target is T2, purified rabbit soluble LR11. The description is as above.
The target of assay [13] is T1, purified human soluble LR11. Kind of assay: affinity capture from serum on RAP/GST bound to Glutathione Sepharose.
Assay [14] deals with T2, purified rabbit soluble LR11. The description is as above.

T2 sequence (Q95209 82-2136 limits assumed): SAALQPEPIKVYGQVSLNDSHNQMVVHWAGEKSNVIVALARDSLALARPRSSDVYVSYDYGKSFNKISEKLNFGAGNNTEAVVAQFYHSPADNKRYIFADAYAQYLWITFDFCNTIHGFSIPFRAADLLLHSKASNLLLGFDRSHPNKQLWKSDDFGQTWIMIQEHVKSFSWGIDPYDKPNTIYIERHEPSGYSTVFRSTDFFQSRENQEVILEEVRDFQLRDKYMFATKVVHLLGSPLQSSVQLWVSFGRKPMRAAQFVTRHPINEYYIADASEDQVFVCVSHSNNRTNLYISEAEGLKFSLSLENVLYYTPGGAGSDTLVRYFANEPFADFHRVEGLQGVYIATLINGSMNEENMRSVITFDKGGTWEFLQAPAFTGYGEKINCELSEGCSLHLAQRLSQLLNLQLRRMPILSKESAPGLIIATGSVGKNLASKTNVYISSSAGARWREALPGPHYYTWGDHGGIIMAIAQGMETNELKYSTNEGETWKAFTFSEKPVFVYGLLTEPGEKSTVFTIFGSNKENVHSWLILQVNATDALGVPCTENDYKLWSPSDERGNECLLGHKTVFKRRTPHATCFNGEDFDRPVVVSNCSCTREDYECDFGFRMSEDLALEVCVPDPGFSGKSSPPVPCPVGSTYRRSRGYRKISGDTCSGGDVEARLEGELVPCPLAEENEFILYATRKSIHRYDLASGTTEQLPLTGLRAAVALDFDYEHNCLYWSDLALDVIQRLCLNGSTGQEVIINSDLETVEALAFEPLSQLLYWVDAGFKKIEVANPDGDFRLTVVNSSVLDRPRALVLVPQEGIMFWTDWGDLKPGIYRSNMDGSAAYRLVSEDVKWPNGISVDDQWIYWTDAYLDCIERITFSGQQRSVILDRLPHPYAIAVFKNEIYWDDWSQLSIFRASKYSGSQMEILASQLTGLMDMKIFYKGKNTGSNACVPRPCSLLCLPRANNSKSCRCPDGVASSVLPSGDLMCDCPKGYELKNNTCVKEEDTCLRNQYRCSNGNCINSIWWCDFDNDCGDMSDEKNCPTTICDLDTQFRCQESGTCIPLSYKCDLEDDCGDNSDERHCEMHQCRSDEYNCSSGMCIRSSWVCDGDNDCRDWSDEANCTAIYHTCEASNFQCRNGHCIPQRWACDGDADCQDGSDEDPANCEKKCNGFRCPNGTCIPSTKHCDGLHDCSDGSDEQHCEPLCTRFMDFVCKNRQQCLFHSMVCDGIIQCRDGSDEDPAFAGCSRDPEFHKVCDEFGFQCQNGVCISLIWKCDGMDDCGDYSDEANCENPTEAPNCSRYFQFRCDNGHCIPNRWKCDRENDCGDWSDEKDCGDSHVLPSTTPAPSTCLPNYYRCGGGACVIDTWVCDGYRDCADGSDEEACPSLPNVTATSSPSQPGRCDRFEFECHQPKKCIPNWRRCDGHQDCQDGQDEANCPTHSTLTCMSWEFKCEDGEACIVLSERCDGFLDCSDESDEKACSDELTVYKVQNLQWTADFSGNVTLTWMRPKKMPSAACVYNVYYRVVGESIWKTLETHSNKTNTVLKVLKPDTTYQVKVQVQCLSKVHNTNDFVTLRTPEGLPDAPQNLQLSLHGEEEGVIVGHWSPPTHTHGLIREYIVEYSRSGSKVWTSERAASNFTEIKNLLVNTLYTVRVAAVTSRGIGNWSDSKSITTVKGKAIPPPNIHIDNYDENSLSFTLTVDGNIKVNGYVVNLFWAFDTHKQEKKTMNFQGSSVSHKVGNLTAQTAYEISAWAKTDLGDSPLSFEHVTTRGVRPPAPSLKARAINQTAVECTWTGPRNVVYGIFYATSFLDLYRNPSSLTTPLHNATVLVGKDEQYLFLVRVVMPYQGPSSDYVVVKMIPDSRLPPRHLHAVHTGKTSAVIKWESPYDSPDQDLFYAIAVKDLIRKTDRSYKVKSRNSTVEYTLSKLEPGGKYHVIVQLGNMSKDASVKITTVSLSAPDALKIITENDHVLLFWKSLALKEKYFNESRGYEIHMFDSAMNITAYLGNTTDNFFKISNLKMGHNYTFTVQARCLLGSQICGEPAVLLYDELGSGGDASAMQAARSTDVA
T1 sequence (Q92673 82-2137 limits assumed): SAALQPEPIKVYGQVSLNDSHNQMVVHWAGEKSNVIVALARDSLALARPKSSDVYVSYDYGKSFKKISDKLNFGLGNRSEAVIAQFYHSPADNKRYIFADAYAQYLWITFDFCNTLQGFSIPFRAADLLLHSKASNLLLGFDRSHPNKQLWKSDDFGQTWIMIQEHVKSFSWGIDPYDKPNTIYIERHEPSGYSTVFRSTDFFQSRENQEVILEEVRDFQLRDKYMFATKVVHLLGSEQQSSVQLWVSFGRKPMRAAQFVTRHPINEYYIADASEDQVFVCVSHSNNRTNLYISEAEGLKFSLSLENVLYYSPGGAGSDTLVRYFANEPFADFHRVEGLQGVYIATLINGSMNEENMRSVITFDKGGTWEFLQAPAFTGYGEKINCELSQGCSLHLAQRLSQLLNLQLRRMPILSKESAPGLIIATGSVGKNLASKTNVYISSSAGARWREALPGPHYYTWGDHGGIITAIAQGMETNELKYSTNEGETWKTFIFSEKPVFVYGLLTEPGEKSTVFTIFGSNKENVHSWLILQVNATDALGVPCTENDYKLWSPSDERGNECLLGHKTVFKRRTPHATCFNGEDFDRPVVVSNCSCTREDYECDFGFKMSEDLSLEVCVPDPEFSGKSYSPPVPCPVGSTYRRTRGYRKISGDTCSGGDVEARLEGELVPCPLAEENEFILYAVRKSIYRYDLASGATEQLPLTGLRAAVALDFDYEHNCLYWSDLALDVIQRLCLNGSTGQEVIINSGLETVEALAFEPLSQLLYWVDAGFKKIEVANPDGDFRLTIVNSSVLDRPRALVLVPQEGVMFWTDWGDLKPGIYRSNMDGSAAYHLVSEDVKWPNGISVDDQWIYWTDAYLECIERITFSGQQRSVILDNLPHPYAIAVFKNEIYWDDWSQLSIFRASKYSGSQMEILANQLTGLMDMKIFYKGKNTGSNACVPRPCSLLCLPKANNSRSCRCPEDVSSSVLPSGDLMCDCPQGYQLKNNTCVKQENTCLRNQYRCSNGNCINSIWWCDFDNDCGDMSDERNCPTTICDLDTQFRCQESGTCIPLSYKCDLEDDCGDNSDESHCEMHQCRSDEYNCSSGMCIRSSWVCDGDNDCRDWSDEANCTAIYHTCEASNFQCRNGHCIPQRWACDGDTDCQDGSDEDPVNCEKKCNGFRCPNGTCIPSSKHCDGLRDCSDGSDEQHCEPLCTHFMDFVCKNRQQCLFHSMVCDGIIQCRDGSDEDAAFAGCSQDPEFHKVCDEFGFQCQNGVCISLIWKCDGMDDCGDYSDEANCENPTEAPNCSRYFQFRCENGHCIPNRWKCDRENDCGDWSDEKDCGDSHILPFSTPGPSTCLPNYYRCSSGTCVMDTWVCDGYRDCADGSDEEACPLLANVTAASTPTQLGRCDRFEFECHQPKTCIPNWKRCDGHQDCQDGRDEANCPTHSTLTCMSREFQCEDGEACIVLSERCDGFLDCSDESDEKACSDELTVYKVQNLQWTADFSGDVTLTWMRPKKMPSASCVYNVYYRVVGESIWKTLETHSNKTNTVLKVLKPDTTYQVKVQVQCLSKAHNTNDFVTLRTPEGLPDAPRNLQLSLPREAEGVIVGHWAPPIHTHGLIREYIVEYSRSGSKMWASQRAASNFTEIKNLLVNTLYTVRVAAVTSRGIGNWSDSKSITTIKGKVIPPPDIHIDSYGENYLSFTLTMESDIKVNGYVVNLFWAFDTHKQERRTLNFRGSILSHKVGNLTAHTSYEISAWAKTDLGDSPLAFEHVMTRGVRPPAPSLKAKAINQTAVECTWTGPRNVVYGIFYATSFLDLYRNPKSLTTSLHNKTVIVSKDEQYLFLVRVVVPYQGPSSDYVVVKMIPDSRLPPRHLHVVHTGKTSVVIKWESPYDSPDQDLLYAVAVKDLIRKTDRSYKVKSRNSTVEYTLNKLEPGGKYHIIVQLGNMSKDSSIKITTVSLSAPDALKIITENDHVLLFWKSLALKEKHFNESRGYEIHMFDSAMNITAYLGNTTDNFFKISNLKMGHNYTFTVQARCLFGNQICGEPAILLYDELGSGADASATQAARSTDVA

For the molecule mouse IgG (negative control) (antibody), the Absorbance (492 nm) (Absorbance (492 nm)) in [1] was 0.024; in assay [2] it was -0.017; in assay [3] it was 0.007; in [4] it was -0.017; in assay [5], -0.017; in assay [6] it was -0.019. Besides, the Absorbance (492 nm) (Absorbance (492 nm)) was -0.02 in [7]; -0.026 in [8]; 0.015 in assay [9]; -0.017 in assay [10]; -0.003 in [11]; 0.043 in assay [12].

B1: RAP/GST fusion protein (other, human, UniProt P30533 35-357, looked up)
chain: YSREKNQPKPSPKRESGEEFRMEKLNQLWEKAQRLHLPPVRLAELHADLKIQERDELAWKKLKLDGLDEDGEKEARLIRNLNVILAKYGLDGKKDARQVTSNSLSGTQEDGLDDPRLEKLWHKAKTSGKFSGEELDKLWREFLHHKEKVHEYNVLLETLSRTEEIHENVISPSDLSDIKGSVLHSRHTELKEKLRSINQGLDRLRRVSHQGYSTEAEFEEPRVIDLWDLAQSANLTDKELEAFREELKHFEAKIEKHNHYQKQLEIAHEKLRHAESVGDGERVSRSREKHALLEGRTKELGYTVKKHLQDLSGRISRARHNEL
notes: Expressed in E. coli DH5alpha and adsorbed on Glutathione Sepharose 4 FF; also called RAP-Sepharose resin; RAP (receptor associated protein); not shown: GST encoded by vector pGEX2T (GE Healthcare Bio Science)
Turning to B1, the binding result in assay [13] and in assay [14] was “binds” in each case.
